Source: patent US20250387497A1, “MULTIVALENT MULTISPECIFIC CONJUGATES AND RELATED COMPOSITIONS AND METHODS OF USE” (Purdue Research Foundation, priority 2022, published 2025)
“And” between values parts separate entries of the source, which are not always exact repeats. Equal entries are not always repeated.

Legend:
[1] = target: Her2 (human epidermal growth factor receptor 2); assay: binding affinity, method not stated
[2] = target: epidermal growth factor receptor (EGFR); assay: binding affinity, method not stated

Row | Kd [1] | Kd [2] | Binder
1 | < 500 nM and 300 nM |  | FCGDGFYACYMDV [peptide "H", binding motif for Her2, …]
2 |  | 459000 nM | YHWYGYTPQNVI [peptide "E", binding motif for EGFR, …]
